Biological target: T1, Rrp44 D171N/D551N (S. cerevisiae, UniProt Q08162 1-1001, D171N | D551N)
T1 sequence: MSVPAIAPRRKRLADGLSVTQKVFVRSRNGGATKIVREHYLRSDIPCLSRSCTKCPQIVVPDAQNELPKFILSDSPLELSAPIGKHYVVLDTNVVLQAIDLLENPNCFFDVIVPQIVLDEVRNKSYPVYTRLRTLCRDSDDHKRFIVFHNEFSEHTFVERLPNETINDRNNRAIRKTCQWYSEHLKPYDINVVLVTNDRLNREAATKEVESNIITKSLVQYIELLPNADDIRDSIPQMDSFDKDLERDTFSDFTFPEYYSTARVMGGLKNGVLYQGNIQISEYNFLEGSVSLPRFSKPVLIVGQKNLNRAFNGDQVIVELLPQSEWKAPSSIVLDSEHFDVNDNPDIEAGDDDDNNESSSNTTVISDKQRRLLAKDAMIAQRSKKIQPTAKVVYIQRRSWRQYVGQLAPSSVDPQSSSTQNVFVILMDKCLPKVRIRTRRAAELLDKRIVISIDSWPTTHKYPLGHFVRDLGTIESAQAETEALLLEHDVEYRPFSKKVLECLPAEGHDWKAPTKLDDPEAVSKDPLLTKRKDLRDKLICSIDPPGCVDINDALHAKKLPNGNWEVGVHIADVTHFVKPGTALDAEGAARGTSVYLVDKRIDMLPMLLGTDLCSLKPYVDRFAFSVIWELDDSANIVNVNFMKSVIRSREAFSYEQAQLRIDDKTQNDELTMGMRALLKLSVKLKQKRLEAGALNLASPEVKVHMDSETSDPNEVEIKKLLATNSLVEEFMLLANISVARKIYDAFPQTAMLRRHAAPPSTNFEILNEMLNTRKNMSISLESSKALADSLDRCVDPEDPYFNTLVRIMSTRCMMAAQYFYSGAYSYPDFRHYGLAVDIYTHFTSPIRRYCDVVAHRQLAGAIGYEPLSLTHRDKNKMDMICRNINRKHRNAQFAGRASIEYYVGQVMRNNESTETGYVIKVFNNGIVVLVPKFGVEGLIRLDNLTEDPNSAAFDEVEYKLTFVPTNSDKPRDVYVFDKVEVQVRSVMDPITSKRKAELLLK
Assay: crystal structure

B1: Rrp43 (natural protein, S. cerevisiae)
chain: MAESTTLETIEIHPITFPPEVLARISPELSLQRHLSLGIRPCLRKYEEFRDVAIENNTLSRYADAGNIDTKNNILGSNVLKSGKTIVITSITGGIIEETSAAIKDLDDFGEEELFEVTKEEDIIANYASVYPVVEVERGRVGACTDEEMTISQKLHDSILHSRILPKKALKVKAGVRSANEDGTFSVLYPDELEDDTLNETNLKMKRKWSYVLYAKIVVLSRTGPVFDLCWNSLMYALQSVKLPRAFIDERASDLRMTIRTRGRSATIRETYEIICDQTKSVPLMINAKNIAFASNYGIVELDPECQLQNSDNSEEEEVDIDMDKLNTVLIADLDTEAEETSIHSTISILAAPSGNYKQLTLVGGGAKITPEMIKRSLLLSRVRADDLSTRFNI
binding result: binds
